Measured values published in patent publication US20210388087A1 (Chugai, published 2021).

B1: CE115HA000 G100bL (antibody, human IgG1, kappa, L234A L235A, N297A, name in Kabat numbering)
heavy: QVQLVESGGGVVQPGRSLRLSCAASGFTFSNAWMHWVRQAPGKGLEWVAQIKAKSNNYATYYAESVKGRFTISRDDSKNSLYLQMNSLKTEDTAVYYCRYVHYGAYYLVDAWGQGTTVTVSSASTKGPSVFPLAPSSKSTSGGTAALGCLVKDYFPEPVTVSWNSGALTSGVHTFPAVLQSSGLYSLSSVVTVPSSSLGTQTYICNVNHKPSNTKVDKKVEPKSCDKTHTCPPCPAPEAAGGPSVFLFPPKPKDTLMISRTPEVTCVVVDVSHEDPEVKFNWYVDGVEVHNAKTKPREEQYASTYRVVSVLTVLHQDWLNGKEYKCKVSNKALPAPIEKTISKAKGQPREPQVYTLPPSRCELTKNQVSLSCAVKGFYPSDIAVEWESNGQPENNYKTTPPVLDSDGSFFLVSKLTVDKSRWQQGNVFSCSVMHEALHNHYTQKSLSLSPDYKDDDDK
chain: EPKSSDKTHTCPPCPAPELLGGPSVFLFPPKPKDTLMISRTPEVTCVVVDVSHEDPEVKFNWYVDGVEVHNAKTKPREEQYNSTYRVVSVLTVLHQDWLNGKEYKCKVSNKALPAPIEKTISKAKGQPREPQVCTLPPSRDELTKNQVSLWCLVKGFYPSDIAVEWESNGQPENNYKTTPPVLDSDGSFFLYSKLTVDKSRWQQGNVFSCSVMHEALHNRYTQKSLSLSP
light: DIVMTQSPLSLPVTPGEPASISCRSSQSLVHSNRNTYLHWYQQKPGQAPRLLIYKVSNRFSGVPDRFSGSGSGTDFTLKISRVEAEDVGVYYCGQGTQVPYTFGQGTKLEIKRTVAAPSVFIFPPSDEQLKSGTASVVCLLNNFYPREAKVQWKVDNALQSGNSQESVTEQDSKDSTYSLSSTLTLSKADYEKHKVYACEVTHQGLSSPVTKSFNRGEC
notes: one-arm antibody
B2: CE115HA000 G100bY (antibody, human IgG1, kappa, L234A L235A, N297A, name in Kabat numbering)
heavy: QVQLVESGGGVVQPGRSLRLSCAASGFTFSNAWMHWVRQAPGKGLEWVAQIKAKSNNYATYYAESVKGRFTISRDDSKNSLYLQMNSLKTEDTAVYYCRYVHYGAYYYVDAWGQGTTVTVSSASTKGPSVFPLAPSSKSTSGGTAALGCLVKDYFPEPVTVSWNSGALTSGVHTFPAVLQSSGLYSLSSVVTVPSSSLGTQTYICNVNHKPSNTKVDKKVEPKSCDKTHTCPPCPAPEAAGGPSVFLFPPKPKDTLMISRTPEVTCVVVDVSHEDPEVKFNWYVDGVEVHNAKTKPREEQYASTYRVVSVLTVLHQDWLNGKEYKCKVSNKALPAPIEKTISKAKGQPREPQVYTLPPSRCELTKNQVSLSCAVKGFYPSDIAVEWESNGQPENNYKTTPPVLDSDGSFFLVSKLTVDKSRWQQGNVFSCSVMHEALHNHYTQKSLSLSPDYKDDDDK
chain: EPKSSDKTHTCPPCPAPELLGGPSVFLFPPKPKDTLMISRTPEVTCVVVDVSHEDPEVKFNWYVDGVEVHNAKTKPREEQYNSTYRVVSVLTVLHQDWLNGKEYKCKVSNKALPAPIEKTISKAKGQPREPQVCTLPPSRDELTKNQVSLWCLVKGFYPSDIAVEWESNGQPENNYKTTPPVLDSDGSFFLYSKLTVDKSRWQQGNVFSCSVMHEALHNRYTQKSLSLSP
light: DIVMTQSPLSLPVTPGEPASISCRSSQSLVHSNRNTYLHWYQQKPGQAPRLLIYKVSNRFSGVPDRFSGSGSGTDFTLKISRVEAEDVGVYYCGQGTQVPYTFGQGTKLEIKRTVAAPSVFIFPPSDEQLKSGTASVVCLLNNFYPREAKVQWKVDNALQSGNSQESVTEQDSKDSTYSLSSTLTLSKADYEKHKVYACEVTHQGLSSPVTKSFNRGEC
notes: one-arm antibody
B3: CE115HA000 H35E (antibody, human IgG1, kappa, L234A L235A, N297A, name in Kabat numbering)
heavy: QVQLVESGGGVVQPGRSLRLSCAASGFTFSNAWMEWVRQAPGKGLEWVAQIKAKSNNYATYYAESVKGRFTISRDDSKNSLYLQMNSLKTEDTAVYYCRYVHYGAYYGVDAWGQGTTVTVSSASTKGPSVFPLAPSSKSTSGGTAALGCLVKDYFPEPVTVSWNSGALTSGVHTFPAVLQSSGLYSLSSVVTVPSSSLGTQTYICNVNHKPSNTKVDKKVEPKSCDKTHTCPPCPAPEAAGGPSVFLFPPKPKDTLMISRTPEVTCVVVDVSHEDPEVKFNWYVDGVEVHNAKTKPREEQYASTYRVVSVLTVLHQDWLNGKEYKCKVSNKALPAPIEKTISKAKGQPREPQVYTLPPSRCELTKNQVSLSCAVKGFYPSDIAVEWESNGQPENNYKTTPPVLDSDGSFFLVSKLTVDKSRWQQGNVFSCSVMHEALHNHYTQKSLSLSPDYKDDDDK
chain: EPKSSDKTHTCPPCPAPELLGGPSVFLFPPKPKDTLMISRTPEVTCVVVDVSHEDPEVKFNWYVDGVEVHNAKTKPREEQYNSTYRVVSVLTVLHQDWLNGKEYKCKVSNKALPAPIEKTISKAKGQPREPQVCTLPPSRDELTKNQVSLWCLVKGFYPSDIAVEWESNGQPENNYKTTPPVLDSDGSFFLYSKLTVDKSRWQQGNVFSCSVMHEALHNRYTQKSLSLSP
light: DIVMTQSPLSLPVTPGEPASISCRSSQSLVHSNRNTYLHWYQQKPGQAPRLLIYKVSNRFSGVPDRFSGSGSGTDFTLKISRVEAEDVGVYYCGQGTQVPYTFGQGTKLEIKRTVAAPSVFIFPPSDEQLKSGTASVVCLLNNFYPREAKVQWKVDNALQSGNSQESVTEQDSKDSTYSLSSTLTLSKADYEKHKVYACEVTHQGLSSPVTKSFNRGEC
notes: one-arm antibody
B4: CE115HA000 H35D (antibody, human IgG1, kappa, L234A L235A, N297A, name in Kabat numbering)
heavy: QVQLVESGGGVVQPGRSLRLSCAASGFTFSNAWMDWVRQAPGKGLEWVAQIKAKSNNYATYYAESVKGRFTISRDDSKNSLYLQMNSLKTEDTAVYYCRYVHYGAYYGVDAWGQGTTVTVSSASTKGPSVFPLAPSSKSTSGGTAALGCLVKDYFPEPVTVSWNSGALTSGVHTFPAVLQSSGLYSLSSVVTVPSSSLGTQTYICNVNHKPSNTKVDKKVEPKSCDKTHTCPPCPAPEAAGGPSVFLFPPKPKDTLMISRTPEVTCVVVDVSHEDPEVKFNWYVDGVEVHNAKTKPREEQYASTYRVVSVLTVLHQDWLNGKEYKCKVSNKALPAPIEKTISKAKGQPREPQVYTLPPSRCELTKNQVSLSCAVKGFYPSDIAVEWESNGQPENNYKTTPPVLDSDGSFFLVSKLTVDKSRWQQGNVFSCSVMHEALHNHYTQKSLSLSPDYKDDDDK
chain: EPKSSDKTHTCPPCPAPELLGGPSVFLFPPKPKDTLMISRTPEVTCVVVDVSHEDPEVKFNWYVDGVEVHNAKTKPREEQYNSTYRVVSVLTVLHQDWLNGKEYKCKVSNKALPAPIEKTISKAKGQPREPQVCTLPPSRDELTKNQVSLWCLVKGFYPSDIAVEWESNGQPENNYKTTPPVLDSDGSFFLYSKLTVDKSRWQQGNVFSCSVMHEALHNRYTQKSLSLSP
light: DIVMTQSPLSLPVTPGEPASISCRSSQSLVHSNRNTYLHWYQQKPGQAPRLLIYKVSNRFSGVPDRFSGSGSGTDFTLKISRVEAEDVGVYYCGQGTQVPYTFGQGTKLEIKRTVAAPSVFIFPPSDEQLKSGTASVVCLLNNFYPREAKVQWKVDNALQSGNSQESVTEQDSKDSTYSLSSTLTLSKADYEKHKVYACEVTHQGLSSPVTKSFNRGEC
notes: one-arm antibody
B5: CE115HA000 H35F (antibody, human IgG1, kappa, L234A L235A, N297A, name in Kabat numbering)
heavy: QVQLVESGGGVVQPGRSLRLSCAASGFTFSNAWMFWVRQAPGKGLEWVAQIKAKSNNYATYYAESVKGRFTISRDDSKNSLYLQMNSLKTEDTAVYYCRYVHYGAYYGVDAWGQGTTVTVSSASTKGPSVFPLAPSSKSTSGGTAALGCLVKDYFPEPVTVSWNSGALTSGVHTFPAVLQSSGLYSLSSVVTVPSSSLGTQTYICNVNHKPSNTKVDKKVEPKSCDKTHTCPPCPAPEAAGGPSVFLFPPKPKDTLMISRTPEVTCVVVDVSHEDPEVKFNWYVDGVEVHNAKTKPREEQYASTYRVVSVLTVLHQDWLNGKEYKCKVSNKALPAPIEKTISKAKGQPREPQVYTLPPSRCELTKNQVSLSCAVKGFYPSDIAVEWESNGQPENNYKTTPPVLDSDGSFFLVSKLTVDKSRWQQGNVFSCSVMHEALHNHYTQKSLSLSPDYKDDDDK
chain: EPKSSDKTHTCPPCPAPELLGGPSVFLFPPKPKDTLMISRTPEVTCVVVDVSHEDPEVKFNWYVDGVEVHNAKTKPREEQYNSTYRVVSVLTVLHQDWLNGKEYKCKVSNKALPAPIEKTISKAKGQPREPQVCTLPPSRDELTKNQVSLWCLVKGFYPSDIAVEWESNGQPENNYKTTPPVLDSDGSFFLYSKLTVDKSRWQQGNVFSCSVMHEALHNRYTQKSLSLSP
light: DIVMTQSPLSLPVTPGEPASISCRSSQSLVHSNRNTYLHWYQQKPGQAPRLLIYKVSNRFSGVPDRFSGSGSGTDFTLKISRVEAEDVGVYYCGQGTQVPYTFGQGTKLEIKRTVAAPSVFIFPPSDEQLKSGTASVVCLLNNFYPREAKVQWKVDNALQSGNSQESVTEQDSKDSTYSLSSTLTLSKADYEKHKVYACEVTHQGLSSPVTKSFNRGEC
notes: one-arm antibody
B6: CE115HA000 G100bS (antibody, human IgG1, kappa, L234A L235A, N297A, name in Kabat numbering)
heavy: QVQLVESGGGVVQPGRSLRLSCAASGFTFSNAWMHWVRQAPGKGLEWVAQIKAKSNNYATYYAESVKGRFTISRDDSKNSLYLQMNSLKTEDTAVYYCRYVHYGAYYSVDAWGQGTTVTVSSASTKGPSVFPLAPSSKSTSGGTAALGCLVKDYFPEPVTVSWNSGALTSGVHTFPAVLQSSGLYSLSSVVTVPSSSLGTQTYICNVNHKPSNTKVDKKVEPKSCDKTHTCPPCPAPEAAGGPSVFLFPPKPKDTLMISRTPEVTCVVVDVSHEDPEVKFNWYVDGVEVHNAKTKPREEQYASTYRVVSVLTVLHQDWLNGKEYKCKVSNKALPAPIEKTISKAKGQPREPQVYTLPPSRCELTKNQVSLSCAVKGFYPSDIAVEWESNGQPENNYKTTPPVLDSDGSFFLVSKLTVDKSRWQQGNVFSCSVMHEALHNHYTQKSLSLSPDYKDDDDK
chain: EPKSSDKTHTCPPCPAPELLGGPSVFLFPPKPKDTLMISRTPEVTCVVVDVSHEDPEVKFNWYVDGVEVHNAKTKPREEQYNSTYRVVSVLTVLHQDWLNGKEYKCKVSNKALPAPIEKTISKAKGQPREPQVCTLPPSRDELTKNQVSLWCLVKGFYPSDIAVEWESNGQPENNYKTTPPVLDSDGSFFLYSKLTVDKSRWQQGNVFSCSVMHEALHNRYTQKSLSLSP
light: DIVMTQSPLSLPVTPGEPASISCRSSQSLVHSNRNTYLHWYQQKPGQAPRLLIYKVSNRFSGVPDRFSGSGSGTDFTLKISRVEAEDVGVYYCGQGTQVPYTFGQGTKLEIKRTVAAPSVFIFPPSDEQLKSGTASVVCLLNNFYPREAKVQWKVDNALQSGNSQESVTEQDSKDSTYSLSSTLTLSKADYEKHKVYACEVTHQGLSSPVTKSFNRGEC
notes: one-arm antibody

target: T1, CD3 epsilon homodimer protein (UniProt P07766 23-126); assay: SPR, CD3 epsilon homodimer on chip, one-arm antibody as analyte;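 also: surface plasmon resonance at 25 °C with CD3 epsilon homodimer amine-coupled to a CM4 sensor chip, antibody injected as analyte, HBS-EP+ as running buffer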
T1 construct: also called CD3 (CD3 epsilon)
T1 sequence (P07766 23-126): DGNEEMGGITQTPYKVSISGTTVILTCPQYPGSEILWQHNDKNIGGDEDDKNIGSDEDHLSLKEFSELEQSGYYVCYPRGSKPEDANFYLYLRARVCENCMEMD

Row | Binder | KD ratio (KD of CE115HA000/KD of altered form)
1 | B1 | 5.84
2 | B2 | 51.4
3 | B3 | 70.3
4 | B4 | 69
5 | B5 | 53.6
6 | B6 | 1.25
